According to paper PMC4118853, “Phage Orf Family Recombinases: Conservation of Activities and Involvement of the Central Channel in DNA Binding” (PLoS ONE, 2014):

How the values were obtained:
[1] = target: T1, E. coli SSB (single-stranded DNA binding protein), wild type (E. coli, UniProt P0AGE0 1-178); test: ELISA; SSB wt or mutant (0.5 µg) bound to the microtitre plate in PBS, GST fusion added for 1 hr at 37°C, detected with HRP-anti-GST antibody, A620nm; details: both partners purified
T1 construct: also called wt SSB; source: purified as described [13]

[2] = target: the molecule itself; test: SDS-PAGE of unboiled samples; purified protein on 12.5% SDS-PAGE without boiling and without a reducing agent, Coomassie blue
MBP-Orf [3] = target: T2, MBP-Orf (Bacteriophage lambda, UniProt P03765 1-146); test: EMSA; 5 mM EDTA; EMSA: 50 mM Tris-HCl pH 8.0, 5 mM EDTA (or 1 mM MgCl2), 1 mM DTT, 5% glycerol, 100 ug/ml BSA, on ice 15 min, 4% PAGE; anisotropy: 100 mM Tris-HCl pH 7.0, 10 nM; details: protein: recombinant; tags: N-terminal MBP; chain copies: 2; label: 5'-32P; single strand
T2 sequence: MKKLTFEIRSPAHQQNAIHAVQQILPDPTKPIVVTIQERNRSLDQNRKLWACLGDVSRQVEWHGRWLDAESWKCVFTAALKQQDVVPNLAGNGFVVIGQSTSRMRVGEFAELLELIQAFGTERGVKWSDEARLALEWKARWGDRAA

MBP-Orf R103E = target: T3, MBP-Orf R103E (Bacteriophage lambda, UniProt P03765 1-146, R103E); test: EMSA; 5 mM EDTA; up to 500 nM; EMSA: 50 mM Tris-HCl pH 8.0, 5 mM EDTA (or 1 mM MgCl2), 1 mM DTT, 5% glycerol, 100 ug/ml BSA, on ice 15 min, 4% PAGE; anisotropy: 100 mM Tris-HCl pH 7.0, 10 nM; details: protein: recombinant; tags: N-terminal MBP; chain copies: 2; label: 5'-32P; single strand
T3 sequence: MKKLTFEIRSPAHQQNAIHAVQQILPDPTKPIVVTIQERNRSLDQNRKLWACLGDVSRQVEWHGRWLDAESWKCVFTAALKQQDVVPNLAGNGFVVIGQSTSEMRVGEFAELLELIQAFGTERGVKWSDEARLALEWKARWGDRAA

MBP-YbcN [4] = target: T4, MBP-YbcN (Escherichia coli cryptic prophage DLP12 …, UniProt Q47269 1-151); test: EMSA; 5 mM EDTA; lower affinity than MBP-Orf; EMSA: 50 mM Tris-HCl pH 8.0, 5 mM EDTA (or 1 mM MgCl2), 1 mM DTT, 5% glycerol, 100 ug/ml BSA, on ice 15 min, 4% PAGE; anisotropy: 100 mM Tris-HCl pH 7.0, 10 nM; details: protein: recombinant; tags: N-terminal MBP; chain copies: 2; label: 5'-32P; single strand
T4 sequence: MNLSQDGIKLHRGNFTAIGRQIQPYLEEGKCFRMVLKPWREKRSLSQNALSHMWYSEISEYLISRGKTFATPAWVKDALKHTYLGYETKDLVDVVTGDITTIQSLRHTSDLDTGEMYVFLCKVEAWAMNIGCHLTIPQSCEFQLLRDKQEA

[5] = target: the molecule itself; test: static light scattering; 0.2 mg/ml protein in 100 mM Tris-HCl pH 7 at 25°C, Zetasizer µV; mass estimated for a spherical particle
[6] = target: T1, E. coli SSB (single-stranded DNA …); test: far-Western; purified SSB wt or mutant (0.5-5 µg) separated on 15% SDS-PAGE, blotted to PVDF, probed with 20-30 µg YbcN or Orf fused to MBP or GST; detected with anti-MBP or anti-GST antibodies; details: both partners purified
MBP-YbcN [7] = target: T4, MBP-YbcN; test: EMSA; 5 mM EDTA; three complexes; EMSA: 50 mM Tris-HCl pH 8.0, 5 mM EDTA (or 1 mM MgCl2), 1 mM DTT, 5% glycerol, 100 ug/ml BSA, on ice 15 min, 4% PAGE; anisotropy: 100 mM Tris-HCl pH 7.0, 10 nM; details: protein: recombinant; tags: N-terminal MBP; chain copies: 2; label: 5'-32P on strand 1; blunt
MBP-YbcN [8] = target: T4, MBP-YbcN; test: EMSA; 5 mM EDTA; no preference over DS60; EMSA: 50 mM Tris-HCl pH 8.0, 5 mM EDTA (or 1 mM MgCl2), 1 mM DTT, 5% glycerol, 100 ug/ml BSA, on ice 15 min, 4% PAGE; anisotropy: 100 mM Tris-HCl pH 7.0, 10 nM; details: protein: recombinant; tags: N-terminal MBP; chain copies: 2; label: 5'-32P on strand 1; blunt, central single G:G mismatch
MBP-Orf [9] = target: T2, MBP-Orf; test: fluorescence anisotropy; some preference over duplex control; data varied; EMSA: 50 mM Tris-HCl pH 8.0, 5 mM EDTA (or 1 mM MgCl2), 1 mM DTT, 5% glycerol, 100 ug/ml BSA, on ice 15 min, 4% PAGE; anisotropy: 100 mM Tris-HCl pH 7.0, 10 nM; details: protein: recombinant; tags: N-terminal MBP; chain copies: 2; label: 3'-fluorescein on strand 1; blunt, central single T:G mismatch

T1 sequence (P0AGE0 whole entry, the tested form may be a part): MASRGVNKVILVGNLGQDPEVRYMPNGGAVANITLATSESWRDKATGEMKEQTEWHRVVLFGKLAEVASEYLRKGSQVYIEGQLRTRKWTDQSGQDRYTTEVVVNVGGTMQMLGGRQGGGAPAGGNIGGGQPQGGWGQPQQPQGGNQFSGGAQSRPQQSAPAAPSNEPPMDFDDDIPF

B1: GST-YbcN (N-terminal glutathione S-transferase fusion of DLP12 YbcN) (natural protein, E. coli (cryptic prophage DLP12), UniProt Q47269 1-151, looked up)
chain: MNLSQDGIKLHRGNFTAIGRQIQPYLEEGKCFRMVLKPWREKRSLSQNALSHMWYSEISEYLISRGKTFATPAWVKDALKHTYLGYETKDLVDVVTGDITTIQSLRHTSDLDTGEMYVFLCKVEAWAMNIGCHLTIPQSCEFQLLRDKQEA
notes: YbcN (orf151), Orf-family protein of E. coli cryptic prophage DLP12; insert of pLB101 moved into pGEX-6P-1; predicted monomer of the GST fusion 44.6 kDa; higher oligomers are put down to dimer-dimer combinations; also called DLP12 GST-YbcN; source: E. coli BL21 Codon Plus carrying pLB108, purified (glutathione sepharose, heparin agarose, Q sepharose); not shown: GST, N-terminal, kept
binding result [1]: binds
stoichiometry N [2]: 4

GGCGACGTGATCACCAGATGATTGCTAGGCATGCTTTCCGCAAGAGAAGC (ssDNA) [SS50]
binding result (MBP-Orf [3]): binds
binding result (MBP-Orf R103E): no binding
binding result (MBP-YbcN [4]): binds

B2: MBP-Orf (bacteriophage λ Orf fused to maltose binding protein), wild type (natural protein)
chain: MKKLTFEIRSPAHQQNAIHAVQQILPDPTKPIVVTIQERNRSLDQNRKLWACLGDVSRQVEWHGRWLDAESWKCVFTAALKQQDVVPNLAGNGFVVIGQSTSRMRVGEFAELLELIQAFGTERGVKWSDEARLALEWKARWGDRAA
notes: Orf (NinB) of bacteriophage λ, a 17 kDa protein; predicted MBP-Orf monomer 59.6 kDa; also called Orf wt; λ MBP-Orf; source: purified as described [13]
binding result [5]: binds
binding result [6]: binds

B3: DS60 (dsDNA)
DNA 1: TTTGGTCTAACTTTACCGCTACTAAATGCCGCGGATTGGTTTCGCTGAATCAGGTTATTA
DNA 2: TAATAACCTGATTCAGCGAAACCAATCCGCGGCATTTAGTAGCGGTAAAGTTAGACCAAA
binding result (MBP-YbcN [7]): binds

B4: MMG:G (dsDNA)
DNA 1: TTTGGTCTAACTTTACCGCTACTAAATGCCGCGGATTGGTTTCGCTGAATCAGGTTATTA
DNA 2: TAATAACCTGATTCAGCGAAACCAATCGGCGGCATTTAGTAGCGGTAAAGTTAGACCAAA
binding result (MBP-YbcN [8]): binds

B5: MMT:G-fluorescein (dsDNA)
DNA 1: TTTGGTCTAACTTTACCGCTACTAAATGCCGCGGATTGGTTTCGCTGAATCAGGTTATTA
DNA 2: TAATAACCTGATTCAGCGAAACCAATCTGCGGCATTTAGTAGCGGTAAAGTTAGACCAAA
binding result (MBP-Orf [9]): binds
